{"source": "patent US11124574B2", "about": "“Specific photoimmuno-theranostics for detection and elimination of skin cancer cells” (University of Cape Town, priority 2015, dated 2021)", "key": {"[1]": {"tested_on": "A431, IGR-1, IGR-39 and A2058", "assay": "XTT cell viability assay, controls on all cell lines", "type": "cell-based, human", "settings": "for cell viability (XTT), controls: all cell lines, treated with NIR-light", "description": "(§1) The human skin epidermoid carcinoma cell line A431 (ATCC: CRL-259), human embryonic kidney (HEK-293T) cell line (ATCC: CRL-11268) and the human melanoma cell line A2058 (ATCC: CRL-11147) were cultured in RPMI-1640 medium. The human melanoma cell line IGR-39 (DSMZ: ACC 239) and IGR-1 (DSMZ: ACC-236) were cultured in DEME medium. All media were supplemented with 2 mM L-glutamine, 10% (v/v) fetal bovine serum (FBS) and 100 U/mL penicillin-streptomycin; the cells were incubated at 37° C. in a 5% CO2 atm. All media and additives were purchased from Life Technologies, Darmstadt, Germany.\n(§2) In addition to the in vitro imaging specificity, the phototoxic activity of scFv-SNAP-IR700 and free IR700 were also investigated using cell proliferation and cell apoptosis assays as described previously (9). Briefly, 2×10^4 cells were seeded in 96-well plates and incubated overnight at 37° C. The cells were treated with different concentrations (0, 12.5, 25, 50, 100, 200 and 400) nM of scFv-425-SNAP, IR700 or equivalent concentration of scFv-SNAP-425-IR700 for 3 h at 37° C. in the dark. Toxic control cultures were incubated with 500 μg/mL zeocin instead of the photosensitizer.\nBefore light irradiation, cells were washed three times with PBS and fresh phenol red free culture media were added to the cells. Light treatment was performed with a Hydrosun® Typ 750 radiator with a water-containing cuvette and an orange filter OG590, with 140 mW/cm^2, dose: 25 J/cm^2a VIS, 76 J/cm^2 wIRA, exposure time: 15 min, and a spectrum in the range of 580-1400 nm (Hydrosun Medizintechnik GmbH, Mülhelm, Germany). […]\n(§3) Cell viability was measured using the cell proliferation kit II (XTT®) (Roche, Mannheim Germany) according to the manufacturer's instructions. […] Cell viability was determined colorimetrically by monitoring the reduction of XTT® to formazan at 450 nm absorbance wavelength and 630 nm reference wavelength using the ELx808 absorbance micro-plate reader (BioTek Instruments GmbH, Bad Friedrichshall, Germany)."}, "[2]": {"tested_on": "A431, IGR-1, IGR-39 and A2058", "assay": "Apo-ONE Caspase-3/7 apoptosis assay, controls", "type": "cell-based, human", "settings": "photosensitizer or fusion protein alone", "description": "as §2\n(§4) Before light irradiation, cells were washed three times with PBS and fresh phenol red free culture media were added to the cells. […]\n(§5) Next it was determined whether scFv-SNAP-IR700 has the ability to induce apoptosis using the Apo-ONE® Homogeneous Caspase-3/7 assay (Promega, Mannheim, Germany). […] The activities of caspase-3 and -7 enzymes were analyzed in cell lysates by measuring the fluorescence signal at 485 nm excitation wavelength and 535 nm emission wavelength using the ELISA plate reader ELx808 (Bio-TEK, Bad Friedrichschall, Germany)."}, "[3]": {"tested_on": "EGFR^+ skin carcinoma cell lines (A431, IGR1 and IGR-39)", "assay": "Flow cytometry binding analysis", "set-up": "species or system human", "settings": "EGFR+ skin cancer cells; 30 min on ice", "description": "Flow cytometry analysis was performed to determine the binding properties of labeled scFv-SNAP-tag fusion protein against skin cancer cell lines. Approximately 4×10^5 cells each of the EGFR-positive skin cancer cell lines IGR-39, IGR-1 and A431 as well as of the EGFR low expressing cell line A2058 were incubated with 0.5 μg of labeled proteins for 30 min on ice. After washing the cells twice with 1.8 mL of PBS in a conventional cell washer, fluorescence signals were detected using a FACSCalibur® device and CellQuest® software (Becton & Dickinson, Heidelberg, Germany) using a 633 nm laser source."}, "[4]": {"tested_on": "EGFR-expressing cell lines (A431, IGR1 and IGR-39)", "assay": "Confocal microscopy binding and internalization", "type": "cell-based, human", "description": "(§6) To further monitor the targeted activity of fusion protein, Opera® High Content Screening System (PerkinElmer, Rodgau, Germany) was used to determine the binding and internalization properties of labeled fusion proteins on skin cancer cells. Cells were prepared as described for flow cytometry analysis. Binding activity was analyzed by incubating the cells with labeled fusion proteins for 30 min on ice, while receptor mediate internalization activities was monitored by incubating the cells with the labeled fusion proteins for 2 h at 37° C."}, "[5]": {"tested_on": "EGFR low expressing cell line (A2058)", "assay": "Confocal microscopy binding and internalization", "type": "cell-based, human", "settings": "same conditions", "description": "as §6"}, "[6]": {"tested_on": "A2058 cells (EGFR low expressing)", "assay": "XTT cell viability assay after light treatment", "type": "cell-based, human", "settings": "same protocol with light, up to 400 nM", "description": "as §1\n(§7) In addition to the in vitro imaging specificity, the phototoxic activity of scFv-SNAP-IR700 and free IR700 were also investigated using cell proliferation and cell apoptosis assays as described previously (9). Briefly, 2×10^4 cells were seeded in 96-well plates and incubated overnight at 37° C. […]\nas §3"}, "[7]": {"tested_on": "EGFR-expressing skin cancer cell lines (A431, IGR-1, IGR-39)", "assay": "XTT cell viability assay, EGFR-expressing lines together", "type": "cell-based, human", "settings": "with light 580-1400 nm; 0-400 nM", "description": "as §1, §7, §3"}, "[8]": {"tested_on": "EGFR low expressing cells (A2058)", "assay": "Apo-ONE Caspase-3/7 apoptosis assay", "type": "cell-based, human", "settings": "same conditions", "description": "as §2, §4, §5"}, "[9]": {"tested_on": "cells expressing EGFR (A431, IGR-1, IGR-39)", "assay": "Apo-ONE Caspase-3/7 apoptosis assay", "type": "cell-based, human", "settings": "all cells expressing EGFR; with light", "description": "as §2, §4, §5"}}}
{"molecule": "C[Si](C)(CCC[N+](CCCS(=O)(=O)[O-])(CCCS(=O)(=O)[O-])CCCS(=O)(=O)[O-])O[Si]1(O[Si](C)(C)CCC[N+](CCCS(=O)(=O)[O-])(CCCS(=O)(=O)[O-])CCCS(=O)(=O)[O-])n2c3c4ccccc4c2N=C2N=C(N=c4c5ccccc5c(n41)=NC1=NC(=N3)c3ccccc31)c1cccc(OCCCOC(=O)NCCCCCC(=O)ON3C(=O)CCC3=O)c12.[Na+].[Na+].[Na+].[Na+]", "note": "(stereo not shown) [IR700, IRDye®700DX N-hydroxysuccinimide ester, reference compound]", "values": [{"measurement": "cell viability (XTT), controls", "setting": "[1]", "value": "unaffected"}, {"measurement": "caspase activities, controls", "setting": "[2]", "value": "no significant elevation of caspase activities"}]}
{"molecule": "scFv-425-SNAP-tag: unlabeled fusion protein of anti-EGFR scFv-425 (SEQ ID No. 1) and SNAP-tag (SEQ ID No. 2)", "values": [{"measurement": "cell viability (XTT), controls", "setting": "[1]", "value": "unaffected"}, {"measurement": "caspase activities, controls", "setting": "[2]", "value": "no significant elevation of caspase activities"}]}
{"molecule": "scFv-425-SNAP-647: scFv-425-SNAP-tag fusion protein conjugated with BG-Alexa-647 dye, used for flow cytometry and confocal microscopy (conjugate, left off: small tags and cut ends) scFv: MAQVQLQQSGAELVKPGASVKLSCKASGYTFTSHWMHWVKQRAGQGLEWIGEFNPSNGRTNYNEKFKSKATLTVDKSSSTAYMQLSSLTSEDSAVYYCASRDYDYDGRYFDYWGQGTTVTVSSGGGGSGGGGSGGGGSDIELTQSPAIMSASPGEKVTMTCSASSSVTYMYWYQQKPGSSPRLLIYDTSNLASGVPVRFSGSGSGTSYSLTISRMEAEDAATYYCQQWSSHIFTFGSGTELEIKRMDKDCEMKRTTLDSPLGKLELSGCEQGLHEIKLLGKGTSAADAVEVPAPAAVLGGPEPLMQATAWLNAYFHQPEAIEEFPVPALHHPVFQQESFTRQVLWKLLKVVKFGEVISYQQLAALAGNPAATAAVKTALSGNPVPILIPCHRVVSSSGAVGGYEGGLAVKEWLLAHEGHRLGKP", "values": [{"measurement": "labeling of cells (flow cytometry)", "setting": "[3]", "value": "rapid and efficient labeling"}, {"measurement": "binding, cell membrane staining (confocal)", "setting": "[4]; 30 min incubation at 4° C.", "value": "homogeneous cell membrane staining"}, {"measurement": "internalization (confocal)", "setting": "[4]; max. 2 h of incubation at 37° C.", "value": "exclusively taken up"}, {"measurement": "binding/internalization signal (confocal)", "setting": "[5]", "value": "no signal was detected"}]}
{"molecule": "scFv-425-SNAP-IR700: IR700 photosensitizer (via BG-PEG24 linker) conjugated to anti-EGFR single-chain variable fragment scFv-425 fused to SNAP-tag (conjugate, left off: small tags and cut ends, IR700 photosensitizer (via BG-PEG24 linker) conjugated to anti-EGFR single-chain variable fragment scFv-425 fused to SNAP-tag) scFv: MAQVQLQQSGAELVKPGASVKLSCKASGYTFTSHWMHWVKQRAGQGLEWIGEFNPSNGRTNYNEKFKSKATLTVDKSSSTAYMQLSSLTSEDSAVYYCASRDYDYDGRYFDYWGQGTTVTVSSGGGGSGGGGSGGGGSDIELTQSPAIMSASPGEKVTMTCSASSSVTYMYWYQQKPGSSPRLLIYDTSNLASGVPVRFSGSGSGTSYSLTISRMEAEDAATYYCQQWSSHIFTFGSGTELEIKRMDKDCEMKRTTLDSPLGKLELSGCEQGLHEIKLLGKGTSAADAVEVPAPAAVLGGPEPLMQATAWLNAYFHQPEAIEEFPVPALHHPVFQQESFTRQVLWKLLKVVKFGEVISYQQLAALAGNPAATAAVKTALSGNPVPILIPCHRVVSSSGAVGGYEGGLAVKEWLLAHEGHRLGKP", "values": [{"measurement": "cell viability (XTT) without light", "setting": "[1]; without any light treatment", "value": "no toxic effects"}, {"measurement": "cell viability (XTT)", "setting": "[6]", "value": "no significant reduction in cell viability"}, {"measurement": "viability of EGFR+ cells (XTT)", "setting": "[7]", "value": "reduced significantly in a concentration-dependent manner"}, {"measurement": "caspase-3 and caspase-7 activities (apoptosis)", "setting": "[8]", "value": "did not have a negative impact"}, {"measurement": "caspase-3 and caspase-7 activities (apoptosis)", "setting": "[9]", "value": "triggers apoptosis"}]}
